Laboratory results taken from article PMC8244255 (Current Research in Structural Biology, 2021).

Experiments:
[1] = target: Full-length human CaM (Homo sapiens, UniProt P0DP23); experiment: ITC of CK peptides with full-length CaM; format: binding
[2] = target: C-lobe fragment (CaM 76–146) (Homo sapiens, UniProt P0DP23); experiment: ITC of CK peptides with C-lobe fragment of CaM; format: binding; conditions: C-lobe compared to N-lobe
[3] = target: Calmodulin C-terminal globular domain (C-lobe fragment, sequence 76-146) (human, UniProt P0DP23 76-146); experiment: ITC
[4] = target: Calmodulin N-terminal globular domain (N-lobe fragment, sequence 1-75) (human, UniProt P0DP23 1-75); experiment: ITC

| stoichiometry n ([1]; presence of Ca2+) | affinity for C-lobe relative to N-lobe (times higher) [2] | binding to CaM ([1]; at any solution conditions) | stoichiometry N [3] [peptide per fragment] | stoichiometry N [4] [peptide per fragment] | Molecule |
| --- | --- | --- | --- | --- | --- |
| 2 | ca. 10 times |  |  |  | Ac-NLGKHEKFSEVLKRLRLQ-NH2 [CKB peptide] |
|  |  |  | 1 | 1 | Ac-HLSKHPKFEEILTRLRLQ-NH2 [CKM peptide (human muscle-type creatine kinase residues 301-318)] |

The next lines start with the molecule.

| Molecule | stoichiometry n ([1]; presence of Ca2+) | affinity for C-lobe relative to N-lobe (times higher) [2] | binding to CaM ([1]; at any solution conditions) | stoichiometry N [3] [peptide per fragment] | stoichiometry N [4] [peptide per fragment] |
| --- | --- | --- | --- | --- | --- |
| AcNH-LKRLRLQKRGTGGVDTAA-CONH2 [peptide covering CKB residues 312–329] |  |  | No binding could be detected |  |  |
| Ac-NLGKHEKFSEVLKRLRLQ-NH2 [CKB peptide (human brain-type creatine kinase residues 301-318)] |  |  |  | 1 | 1 |
